Measured values as given in paper PMC3189933, “Acylpeptide Hydrolase Inhibition as Targeted Strategy to Induce Proteasomal Down-Regulation” (PLoS ONE, 2011).

T1: Porcine liver acylpeptide hydrolase (porcine, UniProt P19205 1-732)
T1 sequence (looked up): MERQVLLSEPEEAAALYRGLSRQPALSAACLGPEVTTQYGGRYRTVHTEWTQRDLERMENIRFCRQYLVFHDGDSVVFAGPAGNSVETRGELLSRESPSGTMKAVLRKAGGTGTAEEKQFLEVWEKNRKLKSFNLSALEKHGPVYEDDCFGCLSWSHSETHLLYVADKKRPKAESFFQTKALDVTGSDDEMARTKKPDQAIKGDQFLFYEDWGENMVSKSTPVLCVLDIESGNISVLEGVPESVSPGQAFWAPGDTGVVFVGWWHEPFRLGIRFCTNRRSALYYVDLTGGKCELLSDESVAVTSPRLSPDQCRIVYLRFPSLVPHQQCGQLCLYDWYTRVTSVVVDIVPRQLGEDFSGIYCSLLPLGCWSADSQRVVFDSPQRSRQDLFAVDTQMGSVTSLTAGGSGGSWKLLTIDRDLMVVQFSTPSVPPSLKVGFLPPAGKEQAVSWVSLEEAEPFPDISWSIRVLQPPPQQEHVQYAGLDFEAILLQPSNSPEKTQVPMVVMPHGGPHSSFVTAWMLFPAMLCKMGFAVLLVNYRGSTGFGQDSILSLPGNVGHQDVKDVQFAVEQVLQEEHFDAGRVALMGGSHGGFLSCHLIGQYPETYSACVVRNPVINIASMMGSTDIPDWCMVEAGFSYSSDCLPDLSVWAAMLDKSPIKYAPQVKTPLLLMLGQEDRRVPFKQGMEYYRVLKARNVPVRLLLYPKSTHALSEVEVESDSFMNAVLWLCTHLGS

B1: SsCEI 4 (peptide)
peptide: H-TILAEIKNINAD-NH2
notes: As SsCEI 2 with Ala at P1; also called S4; source: synthetic peptide (solid-phase Fmoc/tBu synthesis, purified by reverse-phase HPLC)
B2: SsCEI 2 (peptide)
peptide: H-TILLEIKNINAD-NH2

Assays:
[1] = molecular target: T1, Porcine liver acylpeptide hydrolase; experiment: cell-based or functional assay
[2] = molecular target: T1, Porcine liver acylpeptide hydrolase; experiment: enzyme inhibition kinetics (Lineweaver-Burk); porcine APEH (0.5 nM in the legend; 3-5 nM in the methods) pre-incubated with 100 or 150 µM SsCEI 4 for 30 min at 37°C, 50 mM Tris-HCl pH 7.5, substrate acetyl-Ala-pNA; competitive inhibition; details: both partners purified
Bovine α-chymotrypsin = Bovine α-chymotrypsin (bovine); experiment: cell-based or functional assay

Row | Binder | IC50 of inhibition of porcine APEH activity (substrate Ac-Ala-pNA) [1] [µM] | Ki [2] [µM] | IC50 of inhibition of bovine α-chymotrypsin activity (Bovine α-chymotrypsin) [µM]
1 | B1 | 84 | 4 | –
2 | B2 | 142 | – | 21.9
